The series concerns the molecule itself. Put plainly: solid-state NMR (magic-angle spinning, 13C-detected resonance assignment); S64V-EmrE in POPC proteoliposomes, 25:1 lipid/EmrE monomer, pH 5.8; 2D NCA shows separate peaks for chain A and chain B.

B1: S64V-EmrE (natural protein, E. coli, UniProt P23895 1-110, looked up)
chain: MNPYIYLGGAILAEVIGTTLMKFSEGFTRLWPSVGTIICYCASFWLLAQTLAYIPTGIAYAIWVGVGIVLISLLSWGFFGQRLDLPAIIGMMLICAGVLIINLLSRSTPH
notes: also called EmrE mutant S64V; EmrE S64V
On to B1, for which the binding result is listed as “binds”.

Source of the values: publication PMC12513983, “Backbone and sidechain ^1H, ^15N and ^13C resonance assignments of a multidrug efflux membrane protein using solution and solid-state NMR” (Biomolecular Nmr Assignments, 2025).
